Assay results reported in patent US20170189511A1.

target: HLA-A*24 (peptide-receptive MHC class I monomer of the UV-ligand exchange assay) (human); assay: UV-ligand exchange with anti-b2m ELISA

| peptide exchange yield | Binder |
| --- | --- |
| > 75% | VYQGHTALL [Peptide SEQ ID NO: 277 (…)] |
| 50 to 75% | TFSVSSHLF [Peptide SEQ ID NO: 222 (…)] |
| 50 to 75% | HYPPVQVLF [Peptide SEQ ID NO: 285 (…)] |
| 50 to 75% | QYLGQIQHI [Peptide SEQ ID NO: 268 (…)] |
| 20 to 49% | PYRLIFEKF [Peptide SEQ ID NO: 281 (…)] |
| 50 to 75% | YFIDSTNLKTHF [Peptide SEQ ID NO: 269 (…)] |
| 50 to 75% | NYYEVHKELF [Peptide SEQ ID NO: 270 (…)] |
| 50 to 75% | LYITEPKTI [Peptide SEQ ID NO: 287 (…)] |

More lines, now with the values behind:

| Binder | peptide exchange yield |
| --- | --- |
| TYKDEGNDYF [Peptide SEQ ID NO: 209 (…)] | 50 to 75% |
| TYELRYFQI [Peptide SEQ ID NO: 204 (…)] | > 75% |
| YYGPSLFLL [Peptide SEQ ID NO: 200 (…)] | 50 to 75% |
| RYAEEVGIF [Peptide SEQ ID NO: 199 (…)] | 50 to 75% |
| VYWDSAGAAHF [Peptide SEQ ID NO: 202 (…)] | > 75% |
| YYKSTSSAF [Peptide SEQ ID NO: 218 (…)] | 50 to 75% |
| IYATEAHVF [Peptide SEQ ID NO: 201 (…)] | 50 to 75% |
| AYVVFVSTL [Peptide SEQ ID NO: 207 (…)] | 20 to 49% |
| EYSLFPGQVVI [Peptide SEQ ID NO: 197 (…)] | 50 to 75% |
